Data from the nanobody polyreactivity screen of Harvey et al. (2022).

Experiment: yeast display, Sf9 membrane polyspecificity reagent, FACS + sequencing; frameworks hold sequencing errors
Summary of the method: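 Nanobodies from a synthetic yeast display library (Saccharomyces cerevisiae BJ5465), induced 36–48 hours with galactose, were stained 1 hour at 4 °C with 10% biotinylated, detergent-solubilized Sf9 membrane reagent, enriched on streptavidin microbeads, then FACS-sorted. Anti-HA (expression) and streptavidin (reagent binding) fluorescence set low and high (top ~1%) gates. Polyreactivity labels come from the gate of origin. Genes were colony-PCR amplified, MiSeq 2 × 250 sequenced and filtered by CDR length.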

Row | Sequence | polyreactivity (PSR sort gate)
1 | QVQLVETRGGLVQAGGSLRLSCAASGSIFRTNVMGRYRQAPGKERELVAAISRRGGSTYYADSVKGRFTISRDNAKNTVYLQMITLKPEDTAVYYCAASSSAYRDDYWGQGTQVTVSS | high polyreactivity
2 | QVQLVESGGGLVQAGGSLRLSCAASGNIFKVYVMGWYRQAPGKERELVAAISGSGGSTYYADSVKGRFTISRDNAKNTVYLQMNSLKPEDTAVYYCNKVFKVTAARSFGYWGQGTQVTVSS | low polyreactivity
3 | QVQLVESGGVLVQEGGSLRLSCAASVSIFSRNAMGSYRQAPGKERELVAAISYSGGSTYYADSVKGRLTISRDNAKNTVYLQMNSLKPEDTEVYYCAAYGHHFQGDYNYWGQGTQVTVSS | low polyreactivity
4 | QVQLVESGGGLVHAGGSLRLSCAASGSIFEFYAMGWYRQAPGKERELVAAITWDDGSTYYADSVKGRFTISRDNAKNTVYLQMNSLKPEDTAVYYCAASASVRGGGADQYVIAFDYWGQGTQVTVSS | low polyreactivity
5 | QVQLVESGGGLVQAGGSLRLSCAASGSTVGAYAMGWYRQAPGKERELVAAISYSGGSTYYADSVKGRFTISRDNAKNSVYLQMNSLKPEDSAVYYCAAGTKYTSAVHFFYWGQGTQVTVSS | high polyreactivity
6 | QVQLVESGGGLVQAGGSLRLSCAASGRTFSVNAMGWYRQAPGKERELVAAISWDGGSTYYADSVKGRFTISRDNAKNSVYLQMNSLKPEDTAVYYCNKDLYYAYDYWGQGTQVTVSS | low polyreactivity
7 | QVQLVESGGGLVQAGGSLRLSCAASGFIFRYYAMGWYRQAPGKERELVAAISGNGGNTYYADSVKGRFTISRDNAKNTVYLQMNSLKPEDTAVYYCNRAPGYRGGRYDYWGQGTQVTVSS | high polyreactivity
8 | QVHLVESGGGLVQAGGSLRLSCAASGSISVANAMGWYRQAPGKERELVAAITDSGDDTYYADSVKGRFTISRDNAKNTVYLQMNSLKPEDTAVYYCAVEAWSVPPYDYWGQGTQVTVSS | low polyreactivity
9 | QVQLVESGGGLVQAGGSLRLSCAASGYIFPTNAMGWYRPATRKERELLAVITSGGSTYYADSVKGRFTISRDNAKNTVYLLMNSLKPDDTAVYYCAARYQGRYGIYRVLYGYWGQGTQVTVSS | high polyreactivity
10 | QVQLVESGGGLVQAGGSLRLSCAASGFIFHLNAMGWYRQAPGKERELVAAIRSSGGSTYYADSVKGRFTISRDIAKNTVYFQMISMKREDTAVYYCAARGSSGLTRRGYYWGQGTQVNVSS | high polyreactivity
11 | QVQLVESWGGLVQSGGSLRLICAASGSTNQYNAMGWYRQAPGKERELVAAISLSGATTYYADSVKGRCTISRDPAKNTVYLQMNIQKPEDTSVYYCAADFGWFYDCVAVWFIRILGDYWGQGTQVTVSS | low polyreactivity
12 | QVQLGESGGGLVQAGGRLRLSCAASGYTFGYYTMGWYRQAPGKERELVASIDSGGGTNYADSVKGRFTISRDNAKNTVYLQMNSVKAEDTAVYYCAAESPLYWVDDFESGWRYYYWGQGTQVTVSS | low polyreactivity
13 | QVQLVESGGGLVQAGGSLRLSCAASGRIFSFYTKGWYRQEPGKERHLVAANSGSGGSTYYADSVKGRFTISRDNAKNTVYLQMISLKPEDTEFYYCAAGYGFRYYLYDYWGQGTQVTVSS | high polyreactivity
14 | QVQLVESGGGLVQAGGSLRLSCAASGRTFARYAMGWYRQAPGKERDLVADITSGGSTNYADSVKGRFTISRDNAKNTVYLQMNSLEPEDTAVYYCAAYVVWSWFEEYEYWGQGTQVTVSS | high polyreactivity
15 | QVQLVESGGGLVQAGGSLRLSCAASGRIYGDNTMGWYRQAPGKEREFVAAISFIGGSTYYADSVKGRFTISRDNAKNTVYLQMNSLKPEDTAVYYCATVERWTYWFVGYDYWGQGTQVTGSS | high polyreactivity
16 | QVHLVESGGGLVQAGGSLRLSCAASGRIFVFNAMGWYRQAPGKERELVAAINYRGGTYYADSVKGRFTISRDNAKNTVYLQMNSLKPEDTAVYYCNALRQKFQYHDNDYWGQGTQVTVSS | high polyreactivity

Row | Sequence | polyreactivity (PSR sort gate)
17 | QVQLVESGGGLVQAGGSLRLSCAASGFIFGTYVMGWYRQAPGKERELVAAISESGGRTYYADSVKGRFTISRDNAKNTVYLQMNSLKPEDTAVYYCAKVRHIRFHYYYGYQSYYYWGQGTQVTVSS | high polyreactivity
18 | QVQLVESGGGLVQAGGSLRLSSAASGRTFYRYVMGWYRQAPGKERELVADITRSGGSTYYADSVKGRFTISRDNAKNTVYLQMNSLKPEDTAVYYCAAEFLSSVHVRGMDYWGQGTQVTVSS | high polyreactivity
19 | QVQLVESGGGLVQAGGSLRLSCAASGSTFYLNAMGSYRQAPGKERELVAAISSGGRTYYADSVKGRFPISRDNAKNTDYLQMNSLKPEDTAVYYCNAVRYLRGAYNYWGQGTQVTVSS | high polyreactivity
20 | QVQLVESGGGLVQAGGSLRLSCAASGSIFVRYAMGWYRQAPGKERELVAVISSDGRTYYADSVKGRFTISRDNAKNTVYLQMNSLKPEDTAVYYCAKRAWGFGGYDYWGQGTQVTVSS | low polyreactivity
21 | QVQLVESGGGLVQAGGSLRLSCAASGRTFRYYAMGWYRQAPGKERELVAAIDTSSGSTYYADSVKGRFTISRDYAKNTVYLQMNSLKPEDTAVYYCNANWWIPLIYDYWGQGTQVTVSS | low polyreactivity
22 | QVQLVESGGGCVQAGGSLRLSCAASGFIFEQNAKGWYRQARGKEWELVARISWRGGSTYYADSEKGRFTISRDKAKITVYLQMNSLKPEDSAVYYCNAHEVDYFGYYPSDYWGQGTQVTVSS | low polyreactivity
23 | QVQLVESGGGLVQAGGSLRLSCAASGLTFVYNAMGWYRQAPGKERELVATISRGGSTYYADSVKGRFTISLDNAMNTVYLQMTSLKPEDTAVYYCNDDGYYDYDYGYWGQGTQVTVSS | low polyreactivity
24 | QVQLVESGGGLVQAGGSLRLSCAASGRIFSNNDMGWYRQAAGKERELVAAISKNGGRTYYADSVKGRFTISRDNAKNTVYLQMNSLKPEDTAVYYCAAPVKPVTGYYPYDYWGQGTQVTVSS | high polyreactivity
25 | QVQIVESGGGLVQAGGSLRLSCAASGRIFGYNTMGWYRQAPGKERELVASISYYGGGPYYADSVKGRFTISRDLAKYTFYLQMNSLKPEDTAVYYCNALSYGYDDAYGYWGQGTQVTVSS | low polyreactivity
26 | QVQLVDSGGGLVQAGGSLRISCAASGNILIGNVMGWYRQAPGKERELVAAITSGGDTYYADSVKGRITISRDNAKNTVYLQMNSLKPEDTAVYYCAADRPGQPKYEYWGQGTQVTVSS | low polyreactivity
27 | QFQLVESGGGLVQAGGSLRLSCAASGIIFGAYVMGWYRQAPGKERELVAVISWSSTSTYYADSVKGRFTISRDNAKNTVYLQMNSLKPEDTAVYYCNARYLRRGDYWGQGTQVTVSS | low polyreactivity
28 | QVQLVESGGGLVQAGGSLRLSCAASGLTFKYYAMGWYRQATGKERELVARISRGGNTNYADSVKGRFTISRDNAKNTVYLQMNSLKPEDTAVYYCAATVRVYDYWGQGTQVTVSS | high polyreactivity
29 | QVQLVESGGGLVQAGGSLRLSGDASGRIFRLYAMGWYRQAPGKEREFVAAISRSGGRTYYADSVKGRFTISRDNAKNTVYLQMNSLKPEDTAVYYCAAVYRQCGDYYSRDYYWGQGTQVTVSS | high polyreactivity
30 | QVQLVESRGGLVLAGGSLRLSCAASGSIFPSYAMGWYRQAPGKERELVASISYRGGSTYYADSVKGRFTISRDNAKNTVYLQMNSLKPEDTAVYYCAATKERYYGWSRLTGYYRGNYWGQGTQVTVSS | high polyreactivity
31 | QVQLVESGGGLVQAGGSLRLSCAASGSFFASYSMGWYRQAPAKERELVAAITYSGSRTYYADSVKGRFTISRDNAKNTVYLQMNSLKPEDSAVYYCNADYYWYPYEDDYWGQGTQVTVSS | low polyreactivity
